Tests used:
Con A Oo12 ApM activity = test: Con A O12 aminopeptidase inhibition assay, ApM (leucine p-nitroanilide); assay type: biochemical, Ostertagia ostertagi
Method: (§1) The effect of various protease inhibitors on Oo12 activity was assayed and included amastatin (aminopeptidase inhibitor), actinonin (aminopeptidase inhibitor), bestatin (aminopeptidase inhibitor), EDTA (metallo-protease inhibitor), E64 (cysteine protease inhibitor), pepstatin (aspartic protease inhibitor), 1,10 phenanthroline (metallo-protease inhibitor) and 3,4-dichloroisocoumarin (DCI, serine protease inhibitor). 10 μl Con A Oo12 and 100 μl 50 mM Mops buffer, pH 7.0 was added to a microtitre plate well and 2-4 μl of enzyme inhibitor added, to give a final concentration of 0.5 mM and 1 mM actinonin, 50 μM and 100 μM bestatin, 1 mM and 15 mM EDTA, 50 μM and 100 μM E64, 10 and 50 μM pepstatin, 1 mM and 10 mM 1,10 phenanthroline, 100 μM and 500 μM DCI. The plate was preincubated at 37° C. for 20-28 minutes and then assayed for ApM and ApA activity. 100 μl 2 mM leucine p-nitroanilide (ApM) or α-glutamic p-nitroanilide (ApA)/Mops was added per well and the optical density (OD) at 405 nm read using an Elisa plate reader. The plates were incubated at 37° C. for 45-48 minutes and the final OD reading was then taken. The OD change per minute per 10 μl sample was calculated. All assays were carried out in triplicate.

Con A Oo12 ApA activity = test: Con A O12 aminopeptidase inhibition assay, ApA (α-glutamic p-nitroanilide); assay type: biochemical, Ostertagia ostertagi
Method: as §1

pig ApA and ApM = details: Aoyagi et al., J. Antibiotics 43(2); cited from earlier work
Ostertagia ostertagi PHP = test: Protease digestion of Oo PhP, release of ApM activity; assay type: biochemical
Method: Method: Oo PhP was resuspended in 50 mM Mops buffer, pH 7.0 to give 0.1 mg pellet/ml. 50 μl aliquots were prewarmed at 37° C. for 39 minutes. 5 μl of either α-Chymotrypsin (Sigma type VII, 50 units/mg solid), Subtilisin (Sigma type VIII, 11.6 units/mg solid), Trypsin (Sigma, TPCK-treated type XIII, 9700 units/mg solid) or Thermolysin (Sigma, 37 units/mg solid dissolved in 1 mM KCl/2 mM CaCl) was added to give final protease concentrations of 5, 50, 500, 1000 and 2000 μg/ml. Aliquots containing chymotrypsin, trypsin or subtilisin were then incubated at 37° C. for 1 hour and protease activity inhibited by the addition of 1 μl 10 mM 3,4-dichloroisocoumarin (DCI). Aliquots containing thermolysin were incubated for 2 hours at 37° C. and activity inhibited by the addition of 1 μl 0.25M EDTA. Samples were spun at high speed on the airfuge at 20 psi for 20 minutes at room temperature. 5 μl samples were assay for ApM activity, using the microtitre plate method, over 29.6 minutes with methionine-pNA as substrate.

Oc12 = test: Blot of O. circumcincta extracts probed with biotinylated lectins; assay type: binding, Ostertagia circumcincta; details: electroblot of O.circumcincta extracts
Excerpt: The O.circumcincta extracts were electroblotted alongside a sample of H110D and probed with several biotinylated lectins to determine which, if any, would bind to Oc12. (FIG. 8). Biotinylated Concanavalin A, Ulex europaeus, Triticum vulgaris, Dolichos biflorus and Arachis hypogea lectins were used at dilutions optimised for use with H110D. […] U.europaeus lectin bound to several low molecular weight bands and may be used as an affinity chromatography column for removing low molecular weight protein from OcThHS. The wash-through fractions from such a column were applied to a Con A affinity column and the bound proteins were eluted with a gradient of 0-100% 0.5M methylglucoside (FIG. 9). Fractions were assayed for aminopeptidase-like activity (FIG. 10). Aminopeptidase M-like activity was present in the binding fractions.

[1] = system: O. ostertagi extracted residue (microsomal aminopeptidase); test: Trypsin digestion of O12: aminopeptidase activity released from extracted O. ostertagi residue; assay type: biochemical, Ostertagia ostertagi
Method: The residue obtained by centrifuging an homogenate of O. ostertagi in phosphate-buffered saline containing 0.02% sodium azide (PBSa) at 26,500 g (max) for 20 minutes in a swing-out rotor was re-extracted 3 times with PBSa, once with 1% polyoxyethylenesorbitan monolaurate (Tween 20) in PBSa and once with 50 mM 3-[N-morpholino]propane-sulphonic acid (MOPS) pH 8.0. The extracted residue was resuspended in 50 mM MOPS to give the equivalent of 0.17 g worm starting material per ml. Aliquots were digested with 0.5, 5, 50 or 500 μg TPCK-trypsin (trypsin treated with L-1-tosylamide-2-phenylethylchloromethyl ketone)/ml. Digestions were stopped by the addition of 10 mM DCI (15 μl/ml). […] Release of microsomal aminopeptidase A activity was negligible from pellets digested with 0-50 μg TPCK-trypsin/ml.
In another experiment material from 5 g O. ostertagi was digested twice with 50 μg/ml TPCK-trypsin. About 33% of the original amount of ApM was released after a second digest. […] Fractions were run on SDS-PAGE on a 6-16% minigel. After Coomassie blue staining, a band located around the 116,000 region, about the size expected from tryptic digestion of O12 was located in the fractions having the microsomal aminopeptidase activity.
A further 4.3 g of O. ostertagi was digested twice with TPCK-trypsin as above. The total aminopeptidase activity solubilised equalled 455 nmoles/min (Table 6). The high speed supernatants from the first and second digests (Trypsin HS1 & HS2) were buffer exchanged with ConA buffer A and run on a ConA sepharose column. The start material applied to the column was enriched for ApM activity, having a ratio of ApM:ApA of 18:1. All the ApM activity bound to the column (there was none in the wash-through); and 67% of this was recovered by elution with 0.5M methylglucopyranoside+0.2M methylmannoside. (Thus the use of two sugars in the eluting buffer more than doubled ApM recovery from the ConA column.) Fractions containing ApM activity were pooled, concentrated and subjected to gel filtration (on an FPLC Superdex 75 HR10/30 (Pharmacia) column). […]

For CC(C)C[C@@H](N)[C@H](O)C(=O)N[C@H](C(=O)N[C@H](C(=O)N[C@@H](CC(=O)O)C(=O)O)C(C)C)C(C)C [Amaststin, amastatin], the Leu-pNA enzyme activity (Con A Oo12 ApM activity; inhibitor 10 μM) was 0.218 nmoles/min/10 μl ConA O12, the Leu-pNA enzyme inhibition (Con A Oo12 ApM activity; inhibitor 10 μM) was 86% and the Leu-pNA enzyme activity (Con A Oo12 ApM activity; inhibitor 50 μM) was 0.074 nmoles/min/10 μl ConA O12. For the same molecule, the Leu-pNA enzyme inhibition (Con A Oo12 ApM activity; inhibitor 50 μM) was 95%, the α-Glu-pNA enzyme activity (Con A Oo12 ApA activity; inhibitor 10 μM) was 0.282 nmoles/min/10 μl ConA O12 and the α-Glu-pNA enzyme inhibition (Con A Oo12 ApA activity; inhibitor 10 μM) was 12%. The α-Glu-pNA enzyme activity (Con A Oo12 ApA activity; inhibitor 50 μM) was 0.205 nmoles/min/10 μl ConA O12, the α-Glu-pNA enzyme inhibition (Con A Oo12 ApA activity; inhibitor 50 μM) was 36% and the “inhibition of pig ApA versus ApM” value (pig ApA and ApM) was “better inhibitor of pig ApA than of ApM”.

B1: Subtilisin: protease, Sigma type VIII, 11.6 units/mg solid (protein, UniProt P00780 106-379, looked up)
Subtilisin Carlsberg: AQTVPYGIPLIKADKVQAQGFKGANVKVAVLDTGIQASHPDLNVVGGASFVAGEAYNTDGNGHGTHVAGTVAALDNTTGVLGVAPSVSLYAVKVLNSSGSGSYSGIVSGIEWATTNGMDVINMSLGGASGSTAMKQAVDNAYAKGVVVVAAAGNSGSSGNTNTIGYPAKYDSVIAVGAVDSNSNRASFSSVGAELEVMAPGAGVYSTYPTNTYATLNGTSMASPHVAGAAALILSKHPNLSASQVRNRLSSTATYLGSSFYYGKGLINVEAAAQ
With B1 the “Aminopeptidase M activity released by protease digestion, Met-pNA” value (shortened to “Aminopeptidase M activity released”) (Ostertagia ostertagi PHP; 5 μg protease/0.1 mg PHP/ml) was 0.06 nmoles/min/5 μl high speed supernatant, the “Aminopeptidase M activity released” value (Ostertagia ostertagi PHP; 50 μg protease/0.1 mg PHP/ml) was 0.10 nmoles/min/5 μl high speed supernatant and the “Aminopeptidase M activity released” value (Ostertagia ostertagi PHP; 500 μg protease/0.1 mg PHP/ml) was 0.35 nmoles/min/5 μl high speed supernatant. For the same molecule, the “Aminopeptidase M activity released” value (Ostertagia ostertagi PHP; 1000 μg protease/0.1 mg PHP/ml) was 0.66 nmoles/min/5 μl high speed supernatant and the “Aminopeptidase M activity released” value (Ostertagia ostertagi PHP; 2000 μg protease/0.1 mg PHP/ml) was 0.95 nmoles/min/5 μl high speed supernatant.

B2: D.biflorus lectin: biotinylated Dolichos biflorus lectin (protein)
chain: ANIQSFSFKNFNSPSFILQGDATVSSGKLQLTKVKENGIPTPSSLGRAFYSSPIQIYDKSTGAVASWATSFTVKISAPSKASFADGIAFALVPVGSEPRRNGGYLGVFDSDVYNNSAQTVAVEFDTFSNSGWDPSMKHIGIDVNSIKSIATVSWDLANGENAEILITYNAATSLLVASLVHPSRRTSYILSERVDITNELPEYVSVGFSATTGLSEGYIETHDVLSWSFASKLPDDSTAEPLDLASYLVRNVL
In the case of B2, the “binding of biotinylated lectin to Oc12” value (Oc12) is reported as “binds very weakly”.

B3: Trypsin: protease, Sigma, TPCK-treated type XIII, 9700 units/mg solid (protein, UniProt P00760 24-246, looked up)
Serine protease 1: IVGGYTCGANTVPYQVSLNSGYHFCGGSLINSQWVVSAAHCYKSGIQVRLGEDNINVVEGNEQFISASKSIVHPSYNSNTLNNDIMLIKLKSAASLNSRVASISLPTSCASAGTQCLISGWGNTKSSGTSYPDVLKCLKAPILSDSSCKSAYPGQITSNMFCAGYLEGGKDSCQGDSGGPVVCSGKLQGIVSWGSGCAQKNKPGVYTKVCNYVSWIKQTIASN
modifications: TPCK-treated
notes: protease, Sigma, TPCK-treated type XIII, 9700 units/mg solid
For B3, the “Aminopeptidase M activity released” value (Ostertagia ostertagi PHP; 5 μg protease/0.1 mg PHP/ml) was 0.118 nmoles/min/5 μl high speed supernatant, the “Aminopeptidase M activity released” value (Ostertagia ostertagi PHP; 50 μg protease/0.1 mg PHP/ml) was 0.246 nmoles/min/5 μl high speed supernatant and the “Aminopeptidase M activity released” value (Ostertagia ostertagi PHP; 500 μg protease/0.1 mg PHP/ml) was 1.075 nmoles/min/5 μl high speed supernatant. For the same molecule, the “Aminopeptidase M activity released” value (Ostertagia ostertagi PHP; 1000 μg protease/0.1 mg PHP/ml) was 1.273 nmoles/min/5 μl high speed supernatant, the “Aminopeptidase M activity released” value (Ostertagia ostertagi PHP; 2000 μg protease/0.1 mg PHP/ml) was 1.068 nmoles/min/5 μl high speed supernatant and the “release of microsomal aminopeptidase A activity” value ([1]; 0-50 μg TPCK-trypsin/ml) was “negligible”. The “release of microsomal aminopeptidase M activity” value ([1]; 50 μg TPCK-trypsin (485 units), of 0.5, 5, 50 or 500 μg/ml) was “greatest amount” and the “original amount of ApM released after a second digest” value ([1]; 5 g O. ostertagi digested twice with 50 μg/ml) was “About 33%”.

B4: Thermolysin: protease, Sigma, 37 units/mg solid (protein, UniProt P00800 233-548, looked up)
Thermolysin: ITGTSTVGVGRGVLGDQKNINTTYSTYYYLQDNTRGNGIFTYDAKYRTTLPGSLWADADNQFFASYDAPAVDAHYYAGVTYDYYKNVHNRLSYDGNNAAIRSSVHYSQGYNNAFWNGSQMVYGDGDGQTFIPLSGGIDVVAHELTHAVTDYTAGLIYQNESGAINEAISDIFGTLVEFYANKNPDWEIGEDVYTPGISGDSLRSMSDPAKYGDPDHYSKRYTGTQDNGGVHINSGIINKAAYLISQGGTHYGVSVVGIGRDKLGKIFYRALTQYLTPTSNFSQLRAAAVQSATDLYGSTSQEVASVKQAFDAVGVK
For B4, the “Aminopeptidase M activity released” value (Ostertagia ostertagi PHP; 5 μg protease/0.1 mg PHP/ml) was 0.06 nmoles/min/5 μl high speed supernatant, the “Aminopeptidase M activity released” value (Ostertagia ostertagi PHP; 50 μg protease/0.1 mg PHP/ml) was 0.07 nmoles/min/5 μl high speed supernatant and the “Aminopeptidase M activity released” value (Ostertagia ostertagi PHP; 500 μg protease/0.1 mg PHP/ml) was 0.08 nmoles/min/5 μl high speed supernatant. For the same molecule, the “Aminopeptidase M activity released” value (Ostertagia ostertagi PHP; 1000 μg protease/0.1 mg PHP/ml) was 0.11 nmoles/min/5 μl high speed supernatant, the “Aminopeptidase M activity released” value (Ostertagia ostertagi PHP; 2000 μg protease/0.1 mg PHP/ml) was 0.19 nmoles/min/5 μl high speed supernatant and the “release of ApM from the PhP” value (Ostertagia ostertagi PHP; 5-2000 μg/ml protease) was “least effective”.

Reference: patent US6413521B1, “Helminth parasite antigen with aminopeptidase-like activity” (The Barbraham Institute, priority 1993, dated 2002)
